Article PMC3025356, “Mechanism of the Ca^2+-Dependent Interaction between S100A4 and Tail Fragments of Nonmuscle Myosin Heavy Chain IIA” (Journal of Molecular Biology, 2011)
Where two headings read alike, the source gives them in different places.

Tests used:
[1] = molecular target: S100A4 (wild type, full-length) (UniProt P26447); test: fluorescence polarisation; as a1 but without Ca2+: EGTA added to 1 mM at the end of the titration
[2] = molecular target: S100A4 (wild type, full-length) (UniProt P26447); test: fluorescence polarisation; fluorescein anisotropy; 0.1 μM F-M16^N titrated with S100A4; 20 mM NaCl, 10 mM Hepes, 1 mM Mg2+, 100 μM Ca2+, pH 7.5, 20 °C; apparent; 1:1 binding per S100A4 monomer assumed
[3] = molecular target: S100A4 (wild type, full-length) (UniProt P26447); test: stopped-flow fluorescence; 0.1 μM F-M16^N mixed with S100A4, fluorescein emission intensity, with Ca2+; kobs against [S100A4]; dissociation also by displacement with excess M32
[4] = molecular target: S100A4 (wild type, full-length) (UniProt P26447); test: as above; remark: listed apart in the source
[5] = molecular target: S100A4 (wild type, full-length) (UniProt P26447); test: fluorescence polarisation + other: stopped-flow fluorescence; K2 with Ca2+: anisotropy value corrected for the 35% quench of fluorescein, identical with k-2/k2 of the stopped-flow records; per S100A4 monomer
[6] = molecular target: S100A4 (wild type, full-length) (UniProt P26447); test: fluorescence polarisation; competition: displacement of F-M16^N (5 μM) from S100A4 (5 μM) by increasing M32 or M16^N, with Ca2+; fit to a competitive single-site model with Kd of F-M16^N fixed at 2 μM

Sequence of S100A4 (wild type, full-length) (P26447 whole entry): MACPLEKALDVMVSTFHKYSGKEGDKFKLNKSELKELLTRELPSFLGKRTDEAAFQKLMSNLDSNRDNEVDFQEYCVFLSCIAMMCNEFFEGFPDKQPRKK

Substance | Kd [1] | Kd [2] | koff [3] | koff [4] | kon [4] | Kd [5] | Kd [6]
F-M16^N, fluorescein-labelled M16^N myosin peptide (NM-MHC IIA D1908-R1923) (from UniProt P35579-1 1908-1923) | > 300000 nM | 2000 nM | 7.7 s⁻¹ | 6.2 s⁻¹ | 4.9e+06 M⁻¹ s⁻¹ | 1300 nM | 
M16^N myosin peptide (NM-MHC IIA D1908-R1923) (from UniProt P35579-1 1908-1923) |  |  |  |  |  |  | > 100000 nM
